According to patent publication US20090297520A1:
Where two headings read alike, the source gives them in different places. Ends that are not written are not given here.

Tests used:
Experiment in all cases: cell-based or functional assay
human Kv1.1 (human) = human Kv1.1 (human) (UniProt Q09470)
human Kv1.3 (human) [1] = biological target: human Kv1.3 (human) (UniProt P22001)
human Kv1.3 (human) [2] = biological target: human Kv1.3 (human) (UniProt P22001); remark: listed apart in the source

human Kv1.1 (human), sequence (Q09470 whole entry): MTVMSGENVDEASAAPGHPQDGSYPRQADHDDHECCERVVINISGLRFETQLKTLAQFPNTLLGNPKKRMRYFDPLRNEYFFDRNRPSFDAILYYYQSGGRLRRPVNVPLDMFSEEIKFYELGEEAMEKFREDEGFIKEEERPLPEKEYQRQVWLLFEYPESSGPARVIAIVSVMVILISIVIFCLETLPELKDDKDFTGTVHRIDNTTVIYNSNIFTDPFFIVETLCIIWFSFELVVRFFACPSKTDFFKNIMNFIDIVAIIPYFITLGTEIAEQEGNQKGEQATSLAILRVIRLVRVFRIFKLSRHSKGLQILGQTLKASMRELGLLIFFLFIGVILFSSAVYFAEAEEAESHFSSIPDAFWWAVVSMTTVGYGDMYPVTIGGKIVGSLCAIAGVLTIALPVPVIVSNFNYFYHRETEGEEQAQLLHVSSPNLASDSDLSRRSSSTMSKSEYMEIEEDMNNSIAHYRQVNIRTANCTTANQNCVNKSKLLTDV
human Kv1.3 (human), sequence (P22001 whole entry): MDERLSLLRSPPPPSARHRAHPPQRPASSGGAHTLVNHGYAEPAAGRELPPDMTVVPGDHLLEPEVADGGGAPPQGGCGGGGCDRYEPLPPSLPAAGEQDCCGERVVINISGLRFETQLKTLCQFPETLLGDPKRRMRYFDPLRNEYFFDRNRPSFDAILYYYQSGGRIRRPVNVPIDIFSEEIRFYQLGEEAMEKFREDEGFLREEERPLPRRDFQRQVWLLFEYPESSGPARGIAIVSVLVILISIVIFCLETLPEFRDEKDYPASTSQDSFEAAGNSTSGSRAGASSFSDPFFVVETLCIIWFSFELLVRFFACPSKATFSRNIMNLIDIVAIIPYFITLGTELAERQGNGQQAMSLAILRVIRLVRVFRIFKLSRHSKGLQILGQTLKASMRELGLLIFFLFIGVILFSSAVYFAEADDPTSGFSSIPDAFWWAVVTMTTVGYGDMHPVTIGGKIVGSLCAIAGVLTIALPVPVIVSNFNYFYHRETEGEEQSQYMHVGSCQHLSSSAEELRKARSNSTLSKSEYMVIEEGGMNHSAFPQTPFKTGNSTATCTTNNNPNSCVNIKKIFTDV

Molecule: Fc-L10-OSK1 (Fc fusion)
- hKv1.1: IC50 [pM], whole cell patch clamp (human Kv1.1 (human)): 41600 pM

Molecule: E. coli-derived Fc-L-ShK[2-35] (Fc fusion)
- Kv1.3 IC50 by IWQ (nM), IonWorks planar patch clamp on CHO/Kv1.3 cells (human Kv1.3 (human) [1]): 2.8 nM
- Kv1.3 IC50 by WCVC (nM), whole cell patch clamp on HEK293/Kv1.3 cells (human Kv1.3 (human) [1]): 1.3 nM

Molecule: PEG-OSK1 (peptide)
- peak IC50, whole cell patch clamp (human Kv1.3 (human) [1]): 1280 pM

Molecule: PEG-Fc-L10-OSK1, pool 2 (Fc fusion)
- IC50 Sustained (nM), pool 2 (human Kv1.3 (human) [1]): 0.332 nM

Molecule: Synthetic OSK1 (peptide)
- hKv1.1/hKv1.3 (ratio of IC50s, reference hKv1.3) (human Kv1.1 (human)): 4
- hKv1.1: IC50 [pM], whole cell patch clamp (human Kv1.1 (human)): 160 pM
- hKv1.3: IC50 [pM], whole cell patch clamp (human Kv1.3 (human) [1]): 39 pM

Molecule: Fc-L5-ShK[2-35] (CHO-derived, bivalent dimeric) (Fc fusion)
- IC50, block of outward potassium current, whole cell patch clamp (human Kv1.3 (human) [1]): 100 pM

Molecule: E. coli-derived Fc-L-ShK[1-35] (Fc fusion)
- Kv1.3 IC50 by WCVC (nM), whole cell patch clamp on HEK293/Kv1.3 cells (human Kv1.3 (human) [1]): 1.4 nM

Molecule: Fc-L10-ShK[2-35] (CHO-derived, bivalent dimeric) (Fc fusion)
- IC50, block of outward potassium current, whole cell patch clamp (human Kv1.3 (human) [1]): 115 pM

Molecule: E. coli-derived Shk[1-35]-L-Fc (Fc fusion)
- Kv1.3 IC50 by IWQ (nM), IonWorks planar patch clamp on CHO/Kv1.3 cells (human Kv1.3 (human) [1]): 2.4 nM

Molecule: PEG-Fc-L10-SHK(2-35), pool 3 (Fc fusion)
- IC50 Sustained (nM), pool 3 (human Kv1.3 (human) [1]): 0.175 nM

Molecule: PEG-Fc-L10-SHK(2-35), pool 2 (Fc fusion)
- IC50 Sustained (nM), pool 2 (human Kv1.3 (human) [1]): 0.158 nM

Molecule: E. coli-derived ShK[2-35]-L-Fc (Fc fusion)
- Kv1.3 IC50 by IWQ (nM), IonWorks planar patch clamp on CHO/Kv1.3 cells (human Kv1.3 (human) [1]): 4.9 nM

Molecule: GGGGS-Osk1 (peptide)
- WB/IFNg (IC50, nM), human whole blood (human Kv1.3 (human) [1]): 2.2 nM
- WB/IL-2 (IC50, nM), human whole blood (human Kv1.3 (human) [1]): 1.36 nM

Molecule: PEG-Fc-L10-OSK1, pool 3 (Fc fusion)
- IC50 Sustained (nM), pool 3 (human Kv1.3 (human) [1]): 0.256 nM

Molecule: OSK1-K16, D20 (peptide)
- WB/IFNg (IC50, nM), human whole blood (human Kv1.3 (human) [1]): 1.32 nM
- WB/IL-2 (IC50, nM), human whole blood (human Kv1.3 (human) [1]): 1.58 nM

Molecule: 20k PEG-ShK (peptide)
- WB/IFNg (IC50, nM), human whole blood (human Kv1.3 (human) [1]): 0.065 nM
- WB/IL-2 (IC50, nM), human whole blood (human Kv1.3 (human) [1]): 0.046 nM

Molecule: OSK1 (synthetic Osk1 toxin peptide)
- IC50, block of outward potassium current, whole cell patch clamp (human Kv1.3 (human) [1]): 39 pM

Molecule: E. coli-derived Fc-L-OSK1 (Fc fusion)
- Kv1.3 IC50 by WCVC (nM), whole cell patch clamp on HEK293/Kv1.3 cells (human Kv1.3 (human) [1]): 3.2 nM

Molecule: 20k PEG-OSK1[Ala29, 1Nal34] (peptide)
- WB/IFNg (IC50, nM), human whole blood (human Kv1.3 (human) [1]): 0.081 nM
- WB/IL-2 (IC50, nM), human whole blood (human Kv1.3 (human) [1]): 0.049 nM

Molecule: Fc-L25-ShK[2-35] (CHO-derived, bivalent dimeric) (Fc fusion)
- IC50, whole cell patch clamp on HEK293/Kv1.3 cells (human Kv1.3 (human) [1]): 150 pM

Molecule: native OSK1 (peptide)
- Kv1.1 (IC50, pM), whole cell patch clamp ePhys (human Kv1.1 (human)): 202 pM
- Kv1.3 (IC50, pM), whole cell patch clamp ePhys (human Kv1.3 (human) [1]): 39 pM
- Kv1.3 Selectivity (=Kv1.1/Kv.3 IC50) (human Kv1.3 (human) [1]): 5 fold

Molecule: SCIDTIPKSRCTAFQCKHSMKYRLSFCRKTCGTC (not fully specified; ends and bridges not checked) [ShK[2-35] (synthetic peptide analog)]
- IC50, block of outward potassium current, whole cell patch clamp (human Kv1.3 (human) [2]): 49 pM

Molecule: RSCIDTIPKSRCTAFQCKHSMKYRLSFCRKTCGTC (not fully specified (N-terminus); ends and bridges not checked) [20K PEG-ShK[1-35]]
- peak IC50, whole cell patch clamp (human Kv1.3 (human) [2]): 169 pM
